In patent US20240391961A1 one finds FC and Log2(FC) data, which are given here for 40 substances.

For the first assay, the target named is 14-3-3ζ nhpSer58 with a FLAG tag at its N-terminus (Homo sapiens (Human)) (UniProt P63104). Briefly: pulldown from HEK293 lysate, MS; nhpSer58 bait vs WT bait (reference).
Chain of 14-3-3ζ nhpSer58 with a FLAG tag at its N-terminus (Homo sapiens (Human)) (P63104 whole entry): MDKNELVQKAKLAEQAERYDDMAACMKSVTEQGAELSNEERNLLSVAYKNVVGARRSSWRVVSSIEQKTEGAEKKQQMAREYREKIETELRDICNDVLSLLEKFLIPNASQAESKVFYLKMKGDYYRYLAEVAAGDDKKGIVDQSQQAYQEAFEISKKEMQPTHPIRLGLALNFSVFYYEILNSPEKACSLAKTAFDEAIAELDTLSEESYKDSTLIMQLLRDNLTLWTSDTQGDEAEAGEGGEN
The substance “14-3-3 protein zeta/delta [OS = Homo sapiens] (from UniProt P63104 1-245)” displayed an FC of 0.0821 fold and a Log2(FC) of -3.61 log2.

For the next assay the target is unchanged.
Assay: not given
In the case of “Protein disulfide-isomerase A6 [OS = Homo sapiens] (from UniProt Q15084 20-440)”, the FC was found to be 38.4 fold. Still for that read-out and setting: next, “opioid growth factor receptor [OS = Homo sapiens] (from UniProt Q9NZT2 1-677)”: 7.06 fold; “Cyclin-dependent kinase 2-associated protein 1 [OS = Homo sapiens] (from UniProt O14519 1-115)”: 4.42 fold; “Annexin A2 [OS = Homo sapiens] (from UniProt P07355 2-339)”: 24.6 fold. The substance “HAUS augmin-like complex subunit 5 [OS = Homo sapiens] (from UniProt O94927 1-633)” displayed an FC of 7.34 fold.

As for “E3 ubiquitin-protein ligase MYCBP2 [OS = Homo sapiens] (from UniProt O75592 1-4678)”, the FC turned out to be 0.234 fold. Still for that read-out and setting: to “nuclear pore complex protein Nup98-Nup96 [OS = Homo sapiens] (from UniProt P52948 1-1817)” belongs 5.93 fold. For “BRCA2-interacting transcriptional repressor EMSY [OS = Homo sapiens] (from UniProt Q7Z589 1-1322)”, the FC turned out to be 9.69 fold. Still for that read-out and setting: to “Arginase-1 [OS = Homo sapiens] (from UniProt P05089 1-322)” belongs 6.22 fold; to “Protein cereblon [OS = Homo sapiens] (from UniProt Q96SW2 1-442)”, 8.91 fold. Regarding “Polyadenylate-binding protein 1 [OS = Homo sapiens] (from UniProt P11940 1-636)”, the FC is 0.182 fold. The same measure, in the same setting: to “Keratin, type I cytoskeletal 13 [OS = Homo sapiens] (from UniProt P13646 1-458)” belongs 8.89 fold. The same measure, in the same setting: next, “A-kinase anchor protein 9 [OS = Homo sapiens], Q99996 1-3907”: 0.0561 fold; “Desmoglein-1 [OS = Homo sapiens] (from UniProt Q02413 50-1049)”: 7.08 fold; “Neurofibromin [OS = Homo sapiens] (from UniProt P21359 2-2839)”: 0.165 fold. “Translin-associated protein X [OS = Homo sapiens] (from UniProt Q99598 1-290)” yielded an FC of 6.28 fold. The same measure, in the same setting: next, “Serpin B4 [OS = Homo sapiens] (from UniProt P48594 1-390)”: 36.3 fold; “Exportin-1 [OS = Homo sapiens] (from UniProt O14980 1-1071)”: 7.95 fold. On the same count and under the same terms, next, “Acyl-CoA dehydrogenase family member 10 [OS = Homo sapiens] (from UniProt Q6JQN1 1-1059)”: 4.04 fold; “Intraflagellar transport protein 22 homolog [OS = Homo sapiens] (from UniProt Q9H7X7 1-185)”: 16.3 fold.

Consider “Protein S100-A9 [OS = Homo sapiens] (from UniProt P06702 1-114)”, for which the FC turned out to be 4.73 fold. Same read-out and setting: to “SAGA-associated factor 29 [OS = Homo sapiens] (from UniProt Q96ES7 1-293)” belongs 9.02 fold; to “Intraflagellar transport protein 81 homolog [OS = Homo sapiens] (from UniProt Q8WYA0 2-676)”, 21.9 fold; to “Apoptosis-stimulating of p53 protein 2 [OS = Homo sapiens] (from UniProt Q13625 1-1128)”, 6.29 fold. The same measure, in the same setting: to “Junction plakoglobin [OS = Homo sapiens] (from UniProt P14923 1-745)” belongs 4.8 fold. The same measure, in the same setting: to “Melanoma-associated antigen D2 [OS = Homo sapiens] (from UniProt Q9UNF1 2-606)” belongs 63.1 fold. Substance “striatin [OS = Homo sapiens] (from UniProt O43815 1-780)” had an FC of 4.33 fold. The same measure, in the same setting: next, “Talin-1 [OS = Homo sapiens] (from UniProt Q9Y490 1-2541)”: 12.7 fold; “Pre-mRNA-splicing factor ATP-dependent RNA helicase DHX15 [OS = Homo sapiens] (from UniProt O43143 1-795)”: 6.21 fold. The same measure, in the same setting: next, “Platelet-activating factor acetylhydrolase IB subunit alpha [OS = Homo sapiens] (from UniProt P43034 1-410)”: 7.47 fold.

Substance “Cleavage stimulation factor subunit 3 [OS = Homo sapiens] (from UniProt Q12996 2-717)” yielded an FC of 8.68 fold. Still for that read-out and setting: next, “Cytochrome c oxidase subunit 5A, mitochondrial [OS = Homo sapiens] (from UniProt P20674 42-150)”: 0.223 fold; “Centrosomal protein of 55 kDa [OS = Homo sapiens] (from UniProt Q53EZ4 1-464)”: 4.5 fold. “exosome complex exonuclease RRP44 [OS = Homo sapiens] (from UniProt Q9Y2L1 1-958)” showed an FC of 5.09 fold.

In turn, “Keratin, type II cytoskeletal 78 [OS = Homo sapiens] (from UniProt Q8N1N4 1-520)” had an FC of 6.98 fold. On the same count and under the same terms, to “Protein S100-A7 [OS = Homo sapiens] (from UniProt P31151 2-101)” belongs 64.8 fold; to “DNA methyltransferase 1-associated protein 1 [OS = Homo sapiens] (from UniProt Q9NPF5 1-467)”, 6.86 fold; to “Ketosamine-3-kinase [OS = Homo sapiens] (from UniProt Q9HA64 1-309)”, 9.56 fold. On the same count and under the same terms, next, “F-box only protein 50 [OS = Homo sapiens] (from UniProt Q6ZVX7 1-275)”: 4.55 fold.
